Experimental data taken from patent US20170137838.
Read-outs that look alike come from different tables or passages of the source.

Test system: ONAC131 (Os12g03040.1) (Oryza sativa subsp. japonica cv. Nipponbare)
[1] = relative to SO1, SD 0.03, CELD assay
[2] = relative to SO1, SD 0.05, CELD assay
[3] = relative to SO1, SD 0.01, CELD assay

## CACTTGACACGTGGGATCCACGTCACCATCCT (double strand) [Rice glyoxalase I family promoter element]
[1]
  binding signal: 0.29

## AATCCACCGCCATAAATCTACGTAACAAGTCA (double strand) [Rice chitinase site II]
Relative to SO1, CELD assay
  binding signal: 0

## GAGATCCGTGCACAGTAAATAACTGTTACA (double strand) [SO1m14]
Relative to SO1, CELD assay
  binding signal: 0

## GATTTGTCTCGTAATTTACACGTAATCTGTGT (double strand) [Rice ZIM family protein promoter element]
[2]
  binding signal: 0.43

## GAGATCTGTGCACAGTACGTAACTGTTACA (double strand) [SO1m28]
[3]
  binding signal: 0.01

## TTCCGTAGTTTACTGGATCACGACACACACAC (double strand) [Rice chitinase site III]
Relative to SO1, SD 0.02, CELD assay
  binding signal: 0.15

## GAGATCCGTGCACAGTACGTAACTGTTACA (double strand) [SO1 (TaNAC69 high affinity binding site I)]
CELD reporter assay on streptavidin plate, reference, SD 0.03, pH 7.0, 50 mM KCl, 2 mM MgCl2
  binding signal: 1

## GAGGCCCTTAATGTTTACACGTCTCTAGTG (double strand) [SO39m6]
[3]
  binding signal: 0.18

## GCCAGCGTTCTGTTTCTGTACGTCTCTCTGGG (double strand) [Rice chitinase site I]
[1]
  binding signal: 1.07

## GCCAGCGTTCTGTTTCTGTACGTCTCTCTGGG (double strand) [Arabidopsis glyoxalase I family 5'-UTR element]
Relative to SO1, SD 0.03, same sequence as rice chitinase site I
  binding signal: 1.07

## GAGGTGTTTAATGTTTACACGTCTCTAGTG (double strand) [SO39 (TaNAC69 high affinity binding site II)]
[2]
  binding signal: 0.93
